Measurements taken from publication PMC7125077.
Blank lines part the entries; values can stand above or below the substance they belong to.

Columns and labels:
[1] = target: Chaetomium thermophilum XPD, wild type (Chaetomium thermophilum)
[2] = target: Chaetomium thermophilum XPD, wild type (Chaetomium thermophilum); experiment: native gel or EMSA; native PAGE of ctXPD with the ctMAT1 fragments ctMAT1Archway and ctMAT1Lock at similar concentrations (Supplementary Fig. 2c); unbound fragment quantified
[3] = tested on: ctXPD R323S/R324S (Chaetomium thermophilum); experiment: fluorescence anisotropy; conditions: 5 mM Mg2+, ctXPD: 20 mM HEPES pH 7.5, 50 mM KCl, 5 mM MgCl2, 1 mM TCEP, 5 nM DNA, room temperature, ctDDX11: 25 mM HEPES pH 7.5, 25 mM KCl, 1 mM MgSO4, 1 mM TCEP, 2 nM …
[4] = tested on: ctXPD R323E (Chaetomium thermophilum); experiment: fluorescence anisotropy; conditions: 5 mM Mg2+; no MAT1; ctXPD: 20 mM HEPES pH 7.5, 50 mM KCl, 5 mM MgCl2, 1 mM TCEP, 5 nM DNA, room temperature; ctDDX11: 25 mM HEPES pH 7.5, 25 mM KCl, 1 mM MgSO4, 1 mM TCEP, 2 nM …
[5] = tested on: ctXPD R324E (Chaetomium thermophilum); experiment: fluorescence anisotropy; conditions: 5 mM Mg2+; no MAT1; ctXPD: 20 mM HEPES pH 7.5, 50 mM KCl, 5 mM MgCl2, 1 mM TCEP, 5 nM DNA, room temperature; ctDDX11: 25 mM HEPES pH 7.5, 25 mM KCl, 1 mM MgSO4, 1 mM TCEP, 2 nM …
[6] = tested on: ctXPD R333E/R334E (Chaetomium thermophilum); experiment: fluorescence anisotropy; conditions: 5 mM Mg2+; no MAT1; ctXPD: 20 mM HEPES pH 7.5, 50 mM KCl, 5 mM MgCl2, 1 mM TCEP, 5 nM DNA, room temperature; ctDDX11: 25 mM HEPES pH 7.5, 25 mM KCl, 1 mM MgSO4, 1 mM TCEP, 2 nM …
[7] = tested on: ctDDX11 K427E/K428E (Chaetomium thermophilum); experiment: fluorescence anisotropy; conditions: 1 mM MgSO4, 25 mM HEPES pH 7.5, 25 mM KCl, 2 nM DNA, ctXPD: 20 mM HEPES pH 7.5, 50 mM KCl, 5 mM MgCl2, 1 mM TCEP, 5 nM DNA, room temperature, ctDDX11: 25 mM HEPES pH 7.5, 25 mM KCl, 1 mM MgSO4, 1 mM TCEP
[8] = tested on: ctXPD R333S/R334S (Chaetomium thermophilum); experiment: fluorescence anisotropy; conditions: 5 mM Mg2+, ctXPD: 20 mM HEPES pH 7.5, 50 mM KCl, 5 mM MgCl2, 1 mM TCEP, 5 nM DNA, room temperature, ctDDX11: 25 mM HEPES pH 7.5, 25 mM KCl, 1 mM MgSO4, 1 mM TCEP, 2 nM …
[9] = tested on: ctXPD wild type (Chaetomium thermophilum); experiment: fluorescence anisotropy; conditions: 5 mM Mg2+; no MAT1; ctXPD: 20 mM HEPES pH 7.5, 50 mM KCl, 5 mM MgCl2, 1 mM TCEP, 5 nM DNA, room temperature; ctDDX11: 25 mM HEPES pH 7.5, 25 mM KCl, 1 mM MgSO4, 1 mM TCEP, 2 nM …
[10] = tested on: ctXPD K369E (Chaetomium thermophilum); experiment: fluorescence anisotropy; conditions: 5 mM Mg2+; no MAT1; text gives 54 nM; ctXPD: 20 mM HEPES pH 7.5, 50 mM KCl, 5 mM MgCl2, 1 mM TCEP, 5 nM DNA, room temperature; ctDDX11: 25 mM HEPES pH 7.5, 25 mM KCl, 1 mM MgSO4, 1 mM TCEP, 2 nM …
[11] = tested on: ctXPD wild type;ctMAT1Lock (Chaetomium thermophilum;Chaetomium thermophilum); experiment: fluorescence anisotropy; conditions: 5 mM Mg2+; equimolar ctMAT1Lock; ctXPD: 20 mM HEPES pH 7.5, 50 mM KCl, 5 mM MgCl2, 1 mM TCEP, 5 nM DNA, room temperature; ctDDX11: 25 mM HEPES pH 7.5, 25 mM KCl, 1 mM MgSO4, 1 mM TCEP, 2 nM …
[12] = tested on: ctDDX11 wild type (Chaetomium thermophilum); experiment: fluorescence anisotropy; conditions: 1 mM MgSO4, 25 mM HEPES pH 7.5, 25 mM KCl, 2 nM DNA, ctXPD: 20 mM HEPES pH 7.5, 50 mM KCl, 5 mM MgCl2, 1 mM TCEP, 5 nM DNA, room temperature, ctDDX11: 25 mM HEPES pH 7.5, 25 mM KCl, 1 mM MgSO4, 1 mM TCEP
[13] = target: ctXPD K369A (Chaetomium thermophilum)
[14] = target: T1, human XPD, wild type (XPD-FLAG) (human) (UniProt P18074)
T1 sequence: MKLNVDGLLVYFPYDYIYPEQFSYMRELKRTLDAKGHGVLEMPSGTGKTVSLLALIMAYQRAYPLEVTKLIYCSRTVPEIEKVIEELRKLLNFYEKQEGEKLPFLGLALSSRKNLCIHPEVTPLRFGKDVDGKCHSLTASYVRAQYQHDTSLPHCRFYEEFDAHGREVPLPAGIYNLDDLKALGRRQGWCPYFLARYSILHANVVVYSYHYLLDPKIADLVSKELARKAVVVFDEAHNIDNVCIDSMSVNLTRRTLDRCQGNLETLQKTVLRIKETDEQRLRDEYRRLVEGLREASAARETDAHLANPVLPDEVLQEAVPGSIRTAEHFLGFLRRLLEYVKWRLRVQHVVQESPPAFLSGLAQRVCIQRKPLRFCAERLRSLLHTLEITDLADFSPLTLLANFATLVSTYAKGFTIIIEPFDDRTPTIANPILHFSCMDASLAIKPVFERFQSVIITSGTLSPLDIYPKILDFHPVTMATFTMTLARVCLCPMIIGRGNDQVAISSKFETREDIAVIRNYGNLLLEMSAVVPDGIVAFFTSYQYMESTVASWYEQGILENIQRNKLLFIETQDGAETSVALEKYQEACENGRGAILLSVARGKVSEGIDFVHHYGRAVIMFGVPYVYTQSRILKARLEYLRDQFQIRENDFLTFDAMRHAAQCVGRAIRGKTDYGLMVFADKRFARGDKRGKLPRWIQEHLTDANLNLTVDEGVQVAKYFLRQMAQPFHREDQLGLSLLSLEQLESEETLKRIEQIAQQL

[15] = equimolar ctMAT1Lock present (not bound by variant)

inhibition of ctXPD helicase activity (with ctp44, 5' overhang substrate) by titration of the ctMAT1 construct, IC50 [1]: 2990 nM
percent unbound ctMAT1 fragment [2]: 84%
Substance: ctMAT1Archway (residues 83-157 of Chaetomium thermophilum MAT1) (domain or fragment)

Substance: AGCTACCATGCCTGCACGAATTAAGCAATTCGTAATCATGGTCATAGC / GCTATGACCATGATTACGAATTGCTTGGAATCCTGACGAACTGTAG [splayed duplex DNA]
Kd [3, 15]: 31 nM
Kd ([3]; no MAT1): 51 nM
Kd [4]: 41 nM
Kd [5]: 72 nM
Kd [6]: 108 nM
Kd [7]: 50.8 nM
Kd [8, 15]: 128 nM
Kd ([8]; no MAT1): 154 nM
Kd [9]: 66 nM
Kd [10]: 55 nM
Kd [11]: 379 nM
Kd [12]: 30.8 nM

inhibition of helicase activity of the ctXPD variant by ctMAT1Lock, IC50 [13]: 263 nM
inhibition of ctXPD helicase activity (with ctp44, 5' overhang substrate) by titration of the ctMAT1 construct, IC50 [1]: 220 nM
percent unbound ctMAT1 fragment [2]: 12.8%
Substance: ctMAT1Lock (residues 1-157 of Chaetomium thermophilum MAT1) (domain or fragment)

in vitro run-off transcription with core-TFIIH lacking XPD (rIIH6), XPD and the CAK variant, residual activity against wild-type CAK [14]: 55%
Substance: human CAK with MAT1 D97S/E100S (from UniProt P51948 1-309; P50613 1-346; P51946 1-323) (complex)
